Patent publication WO2007076336A1

Target: Human CGRP (Example 4, isoform not stated) (human) (UniProt P80511)
Assay: cell-based or functional assay

UniProt P80511, sequence (P80511 2-92 limits assumed): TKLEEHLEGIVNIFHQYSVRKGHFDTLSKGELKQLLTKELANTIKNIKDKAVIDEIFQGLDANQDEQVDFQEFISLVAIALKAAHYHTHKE

monoclonal antibody C7113 (Sigma-Aldrich, St. Louis, MO)
IC50, inhibition of CGRP-induced cAMP in SK-N-MC cells (HTRF): 10.1 nM
